From PMC11388340
Blank lines part the entries; values can stand above or below the substance they belong to.

Experiments:
[1] = molecular target: H3.3/H4 (Homo sapiens (H3.3); Xenopus laevis (H4)) (UniProt P84243+P62799); experiment: competition; conditions: 20 mM HEPES pH 7.5, 150 mM NaCl, 0.5 mM TCEP, 0.001% Tween-20, 1 mg/ml BSA; 10 nM probe; temperature not stated
[2] = molecular target: ASF1a-C labelled with fluorescein-5-maleimide (human) (UniProt Q9Y294); experiment: fluorescence polarisation; direct binding: protein titrated into 10 nM fluorescently labelled ASF1a-C probe; 20 mM HEPES pH 7.5, 150 mM NaCl, 0.5 mM TCEP, 0.001% Tween-20, 1 mg/ml BSA; one-site total binding model
[3] = molecular target: ASF1a-C labelled with Alexa Fluor 488 (human) (UniProt Q9Y294); experiment: as above
[4] = molecular target: HIRA-WB/UBN1-NM/H3.3/H4 complex (human | X. laevis) (UniProt P54198); experiment: AUC; sedimentation velocity of the HIRA-WB/UBN1-NM/H3.3/H4 SEC peak at three loading concentrations, 4 °C, 20 mM HEPES pH 6.95, 500 mM NaCl, 0.5 mM TCEP; global fit in Sedphat to monomer-dimer self-association: 2:2:2:2 assembly to 1:1:1:1 assemblies
H3/H4 (Homo sapiens) = H3/H4 (Homo sapiens) (UniProt P84243); conditions: cited from earlier work
[5] = molecular target: HIRA-WB/UBN1-NM complex (human) (UniProt P54198); experiment: AUC; sedimentation velocity of the HIRA-WB/UBN1-NM/H3.3/H4 SEC peak at three loading concentrations, 4 °C, 20 mM HEPES pH 6.95, 500 mM NaCl, 0.5 mM TCEP; global fit in Sedphat to monomer-dimer self-association: 2:2:2:2 assembly to 1:1:1:1 assemblies
[6] = molecular target: H3.3/H4 heterodimer (human | X. laevis) (UniProt P84243); experiment: AUC; sedimentation equilibrium of H3.3/H4 alone, 4 °C, three loading concentrations, 15,000, 25,000 and 30,000 rpm, 20 mM HEPES pH 7.5, 100 mM NaCl, 100 mM KCl, 2 mM MgCl2, 1 mM EDTA, 0.05% Brij-35; monomer-dimer model: (H3.3/H4)2 tetramer to H3.3/H4 heterodimers
H3.3/H4 (Homo sapiens) = H3.3/H4 (Homo sapiens) (UniProt P84243); conditions: cited from earlier work

ASF1a, sequence (Q9Y294 whole entry): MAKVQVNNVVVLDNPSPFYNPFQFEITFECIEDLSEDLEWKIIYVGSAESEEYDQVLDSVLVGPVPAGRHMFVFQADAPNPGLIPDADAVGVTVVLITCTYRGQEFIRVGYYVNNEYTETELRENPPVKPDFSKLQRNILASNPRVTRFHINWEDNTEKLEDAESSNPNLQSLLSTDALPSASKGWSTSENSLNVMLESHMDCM
ASF1a-C labelled with Alexa Fluor 488 (human), sequence (Q9Y294 1-156): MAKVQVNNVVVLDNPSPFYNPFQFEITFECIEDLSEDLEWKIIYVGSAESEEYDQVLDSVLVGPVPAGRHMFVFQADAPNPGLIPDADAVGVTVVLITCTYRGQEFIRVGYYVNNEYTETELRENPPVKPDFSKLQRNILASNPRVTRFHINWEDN
ASF1a-C labelled with fluorescein-5-maleimide (human), sequence (Q9Y294 1-156): as above

- Kd [2]: 0.28 µM
Substance: H3.3/H4 heterodimer (from UniProt P84243 1-136; P62799 1-103) (complex; other documents disagree on this pair)

- Kd [4]: 6 µM
- stoichiometry N [4]: 2
Substance: HIRA-WB/UBN1-NM/H3.3/H4 complex (from UniProt P54198 1-473; Q9NPG3 1-584; P84243 1-136; P62799 1-103)

- stoichiometry N [5]: 1
- Kd [6]: 6 µM
- stoichiometry N [6]: 2
Substance: H3.3/H4 heterodimer (from UniProt P84243 1-136; P62799 1-103) (complex)

The remaining lines, values behind:

Substance: 60 bp dsDNA competitor
- Ki [1]: 0.28 µM

Substance: HIRA-WB/UBN1-NM/H3.3/H4 complex (from UniProt P54198 1-473; Q9NPG3 1-584; P84243 1-136; P62799 1-103) (complex; other documents disagree on this pair)
- Kd [3]: 1 µM

Substance: ASF1a (from UniProt Q9Y294)
- Kd (H3/H4 (Homo sapiens)): 0.0025 µM

Substance: UBN1 (from UniProt Q9NPG3)
- Kd (H3.3/H4 (Homo sapiens)): 7 µM
